B1: Regulator of sigma D (Escherichia coli (strain K12)), P0AFX4 (parent)
chain: MLNQLDNLTERVRGSNKLVDRWLHVRKHLLVAYYNLVGIKPGKESYMRLNEKALDDFCQSLVDYLSAGHFSIYERILHKLEGNGQLARAAKIWPQLEANTQQIMDYYDSSLETAIDHDNYLEFQQVLSDIGEALEARFVLEDKLILLVLDAARVKHPA

Variants of: B1
Details: with rpod_ecoli rpoD

Row | Variant | effect of a mutation on the interaction
1 | MLNQLDNLTERVRESNKLVDRWLHVRKHLLVAYYNLVGIKPGKESYMRLNEKALDDFCQSLVDYLSAGHFSIYERILHKLEGNGQLARAAKIWPQLEANTQQIMDYYDSSLETAIDHDNYLEFQQVLSDIGEALEARFVLEDKLILLVLDAARVKHPA | increasing interaction strength
2 | MLNQLDNLTERVRESNKLVDRWLHVRKHLLVAYFNLVGIKPGKESYMRLNEKALDDFCQSLVDYLSAGHFSIYERILHKLEGNGQLARAAKIWPQLEANTQQIMDYYDSSLETAIDHDNYLEFQQVLSDIGEALEARFVLEDKLILLVLDAARVKHPA | increasing interaction strength
3 | MLNQLDNLTERVRGSNKLVDRWLHVRKHLLVAYFNLVGIKPGKESYMRLNEKALDDFCQSLVDYLSAGHFSIYERILHKLEGNGQLARAAKIWPQLEANTQQIMDYYDSSLETAIDHDNYLEFQQVLSDIGEALEARFVLEDKLILLVLDAARVKHPA | decreasing interaction strength

Variants of: B1
Details: with rpod_ecoli rpoD
Remark: another data set of the same source

Row | Variant | effect of a mutation on the interaction
4 | MLNQLDNLTERVRGSNKLVDRWLHVRKHLLVAYYNLVGIKPGKESYMRLNEKALDDFCQSLVDYLSAGHFSIYERILHKLEGNGQLARAAKIWPQLEANTQQIMDYYDSSLETAIDHDNYLEFQQVLSDIGEALEARFVLENKLILLVLDAARVKHPA | disrupting interaction strength
5 | MLNQLDNLTERVRGSNKLVDRWLHVRKHLLVAYFNLVGIKPGKESYMRLNEKALDDFCQSLVDYLSAGHFSIYERILHKLEGNGQLARAAKIWPQLEANTQQIMDYYDSSLETAIDHDNYLEFQQVLSDIGEALEARFVLEDKLILLVLDAARVKHPA | increasing interaction strength
